Results taken from patent publication US20240252589A1, “AGENT FOR ENHANCING PHAGOCYTOSIS ABILITY OF NEUTROPHILS” (priority 2018, published 2024).

Columns and labels:
Human neutrophils [1] = experiment: Phagocytosis ability of neutrophils against Escherichia coli (pHrodo indicator, InCell Analyzer); type: cell-based
Protocol: (§1) Phagocytosis ability of neutrophils against Escherichia coli (a gram-negative bacterium) or Staphylococcus aureus (a gram-positive bacterium) was measured with a pHrodo™ indicator. Phagosomes within neutrophils can be fluorescence-stained with a pHrodo™ staining reagent to measure their phagocytosis ability. Human neutrophils were separated from the whole blood using a hemocyte separation solution Polymorphprep™, and the cell solution was washed with PBS to perform suspension. The numbers of cells were adjusted, and the cells were stained with Hoechst33342 (nucleus staining: blue) and calcein-AM (cytoplasm: green) by incubation under CO2 at 37° C. for 15 min. Neutrophil solutions were resuspended in HBSS, and the numbers of cells were adjusted (2×10^6 cells/mL).
(§2) To the neutrophil liquids at the cell concentration, hHRG solutions were added, and the mixtures were dispensed to a 96-well plate, allowing incubation under CO2 at 37° C. for 30 min. Then, Escherichia coli (pHrodo™ Escherichia coli) or Staphylococcus aureus (pHrodo™ Staphylococcus aureus) was added to the 96-well plate, and incubated under CO2 at 37° C. In this Example, the final concentration of the cell liquids was 2×10^4 cells/well (2×10^5 cells/mL), the final concentrations of HRG were from 0.01 μM to 3.0 μM, and the final concentration of pHrodo™ Escherichia coli or pHrodo™ Staphylococcus aureus was 25 μg/well (250 μg/mL). The incubation of Escherichia coli was for 60 min, and that of Staphylococcus aureus was for 120 min.
(§3) Through use of InCell Analyzer (GE Healthcare), the amounts of red-colored pHrodo by neutrophils' uptake were analyzed by image analysis and quantification to observe the phagocytosis ability of neutrophils.
To the neutrophil liquids at the cell concentration (2×10^6 cells/mL), each solution of hHRG, rHRG, or HRG-Fc was added to observe the phagocytosis ability of neutrophils against Escherichia coli or Staphylococcus aureus by the same procedure as Experimental Example 1 (HRG final concentrations of from 0.1 μM to 3.0 μM). […] The amounts of red-colored pHrodo by neutrophils' uptake can be imaged and quantified to observe the phagocytosis ability of neutrophils.

Human neutrophils [2] = experiment: Phagocytosis ability of neutrophils against Staphylococcus aureus (pHrodo indicator, InCell Analyzer); type: cell-based
Protocol: as §1, §2
as §3, with “neutrophils. The analysis results of phagocytosis ability of neutrophils against Escherichia coli and Staphylococcus aureus are shown in FIG. 4A and FIG. 4B.” for “neutrophils.”
To the neutrophil liquids at the cell concentration (2×10^6 cells/mL), each solution of hHRG, rHRG, or HRG-Fc was added to observe the phagocytosis ability of neutrophils against Escherichia coli or Staphylococcus aureus by the same procedure as Experimental Example 1 (HRG final concentrations of from 0.1 μM to 3.0 μM). As an observation experiment, phagocytosis ability of neutrophils against Escherichia coli or Staphylococcus aureus was observed, when each of different anti-HRG antibodies or control antibodies was added. The amounts of red-colored pHrodo by neutrophils' uptake can be imaged and quantified to observe the phagocytosis ability of neutrophils. […]

neutrophils [3] = experiment: Opsonin effect 2: phagocytosis by neutrophils of pretreated Escherichia coli; type: cell-based, Human
Protocol: (§4) Escherichia coli (pHrodo™ Escherichia coli) or Staphylococcus aureus (pHrdo™ Staphylococcus aureus) was pre-incubated with human serum albumin (HSA, 1.0 μM), hHRG (1.0 μM), or 5-fold-diluted human serum (1/5 Serum) at 37° C. for 15 min, and then Escherichia coli or Staphylococcus aureus was washed twice with HBSS. […] A hHRG solution was added to a neutrophil solution. The mixture was dispensed to a 96-well plate and incubated under CO2 at 37° C. for 30 min. Then, the Escherichia coli or Staphylococcus aureus pretreated with the above-mentioned HSA or HRG solution, or 5-fold-diluted human serum was added, and the resulting mixture was dispensed to the 96-well plate and incubated under CO2 at 37° C. for 120 min. The final concentration of the cell liquid at this time was 2×10^4 cells/well (2×10^5 cells/mL), the final concentration of HSA or HRG was […], and the final concentration of […] was 25 μg/well (250 μg/mL). Through use of InCell Analyzer (GE Healthcare), the amounts of red-colored pHrodo by neutrophils' uptake were analyzed by image analysis and quantification to observe the phagocytosis ability of neutrophils.

neutrophils [4] = experiment: Opsonin effect 1: phagocytosis by neutrophils of pHrodo Red Zymosan treated with serum containing HRG or no HRG; type: cell-based, Human; settings: Zymosan 500 μg/mL; HRG 1.0 μM; 120 min; compared with serum containing no HRG
Protocol: In this Experimental Example, the effect of HRG on opsonization (Op) was observed using serum containing HRG or no HRG. Healthy human serum was used for opsonization (Op). In this Experimental Example, the “serum containing HRG” refers to untreated, healthy human serum. In this Experimental Example, the “serum containing no HRG” refers to human serum in which a Ni-NTA agarose gel is added to human serum to adsorb HRG in the serum, and then the Ni-NTA agarose gel is removed by centrifugation.
Zymosan (pHrodo™ Red Zymosan, manufactured by Thermo Fisher Scientific Inc.) was blended with serum containing HRG or no HRG at 4° C., and then the mixture was stirred well by ultrasonic homogenization. After the stirring, centrifugation was performed at 4° C. and 15,000 rpm for 15 min. The supernatant was discarded and the sediment was suspended in HBSS. This washing procedure was repeated twice, and then Zymosan was suspended in HBSS. The concentration of Zymosan at this time of point was 1.0 mg/mL.
To the neutrophil liquids, hHRG solutions were added, and the mixtures were dispensed to a 96-well plate, allowing incubation under CO2 at 37° C. for 30 min. […] Through use of InCell Analyzer (GE Healthcare), the amounts of red-colored pHrodo by neutrophils' uptake were analyzed by image analysis and quantification to observe the phagocytosis ability of neutrophils.

neutrophils [5] = experiment: Opsonin effect 2: phagocytosis by neutrophils of pretreated Staphylococcus aureus; type: cell-based, Human
Protocol: as §4

[6] = Experimental Example 2, final concentrations 0.1 μM to 3.0 μM
[7] = Experimental Example 3, 1.0 μM hHRG, antibodies 10 μM
[8] = bacteria pre-incubated 37° C. 15 min with hHRG 1.0 μM or 5-fold-diluted human serum
[9] = compared to un-opsonized (UnOp) bacterial cells, HRG added to neutrophils

Molecule	enhancement of phagocytosis of neutrophils against Escherichia coli (Human neutrophils [1]; [6])	enhancement of phagocytosis of neutrophils against Staphylococcus aureus (Human neutrophils [2]; [6])	HRG concentration at which phagocytosis ability reached a plateau (Human neutrophils [1]; Experimental Example 1, Escherichia coli)	phagocytosis ability of neutrophils against Escherichia coli (Human neutrophils [1]; Experimental Example 1, hHRG 0.01 μM to 3.0 μM, 30 min preincubation, 60 min with pHrodo E. coli)	phagocytosis ability of neutrophils against Escherichia coli (Human neutrophils [1]; [7])	opsonin (Op)-enhancing effect of pretreatment of Escherichia coli (neutrophils [3]; [8])	phagocytosis ability of neutrophils of Escherichia coli opsonized with human sera on addition of HRG (neutrophils [3]; [9])	amount of phagocytosis by neutrophils of serum-treated Zymosan (opsonin effect) (neutrophils [4])	HRG concentration at which phagocytosis ability reached a plateau (Human neutrophils [2]; Experimental Example 1, Staphylococcus aureus)	phagocytosis ability of neutrophils against Staphylococcus aureus (Human neutrophils [2]; Experimental Example 1, hHRG 0.01 μM to 3.0 μM, 30 min preincubation, 120 min with pHrodo S. aureus)	phagocytosis ability of neutrophils against Staphylococcus aureus (Human neutrophils [2]; [7])	opsonin (Op)-enhancing effect of pretreatment of Staphylococcus aureus (neutrophils [5]; [8])	phagocytosis ability of neutrophils of Staphylococcus aureus opsonized with human sera on addition of HRG (neutrophils [5]; [9])
rHRG: Recombinant human HRG expressed in CHO cells, purified on Ni-NTA agarose (protein, misc_feature 1..1596 EcoR1-HRG-Xho1, Recombinant human HRG expressed in CHO cells, purified on Ni-NTA agarose) EFRMGKALIAALLLITLQYSCAVSPTDCSAVEPEAEKALDLINKRRRDGYLFQLLRIADAHLDRVENTTVYYLVLDVQESDCSVLSRKYWNDCEPPDSRRPSEIVIGQCKVIATRHSHESQDLRVIDFNCTTSSVSSALANTKDSPVLIDFFEDTERYRKQANKALEKYKEENDDFASFRVDRIERVARVRGGEGTGYFVDFSVRNCPRHHFPRHPNVFGFCRADLFYDVEALDLESPKNLVINCEVFDPQEHENINGVPPHLGHPFHWGGHERSSTTKPPFKPHGSRDHHHPHKPHEHGPPPPPDERDHSHGPPLPQGPPPLLPMSCSSCQHATFGTNGAQRHSHNNNSSDLHPHKHHSHEQHPHGHHPHAHHPHEHDTHRQHPHGHHPHGHHPHGHHPHGHHPHGHHPHCHDFQDYGPCDPPPHNQGHCCHGHGPPPGHLRRRGPGKGPRPFHCRQIGSVYRLPPLRKGEVLPLPEANFPSFPLPHHKHPLKPDNQPFPQSVSESCPGKFKSGFPQVSMFFTHTFPKPLE	to the same extent as hHRG	to the same extent as hHRG	–	–	–	–	–	–	–	–	–	–	–
HRG: Human plasma-derived histidine-rich glycoprotein, about 80 kDa, purified by Ni-NTA affinity and Mono Q chromatography (protein) VSPTDCSAVEPEAEKALDLINKRRRDGYLFQLLRIADAHLDRVENTTVYYLVLDVQESDCSVLSRKYWNDCEPPDSRRPSEIVIGQCKVIATRHSHESQDLRVIDFNCTTSSVSSALANTKDSPVLIDFFEDTERYRKQANKALEKYKEENDDFASFRVDRIERVARVRGGEGTGYFVDFSVRNCPRHHFPRHPNVFGFCRADLFYDVEALDLESPKNLVINCEVFDPQEHENINGVPPHLGHPFHWGGHERSSTTKPPFKPHGSRDHHHPHKPHEHGPPPPPDERDHSHGPPLPQGPPPLLPMSCSSCQHATFGTNGAQRHSHNNNSSDLHPHKHHSHEQHPHGHHPHAHHPHEHDTHRQHPHGHHPHGHHPHGHHPHGHHPHGHHPHCHDFQDYGPCDPPPHNQGHCCHGHGPPPGHLRRRGPGKGPRPFHCRQIGSVYRLPPLRKGEVLPLPEANFPSFPLPHHKHPLKPDNQPFPQSVSESCPGKFKSGFPQVSMFFTHTFPK	–	–	0.3 M	enhanced	enhanced	did not exhibit an opsonin (Op)-enhancing effect	highly enhanced	opsonin (Op)-enhancing effect	0.3 µM	enhanced	enhanced	did not exhibit an opsonin (Op)-enhancing effect	highly enhanced
